Consider four molecules from PMC3929611, “Generation of Recombinant Antibodies to Rat GABAA Receptor Subunits by Affinity Selection on Synthetic Peptides” (PLoS ONE, 2014).

As a reminder, the Kd is the constant that tells how readily two partners part at equilibrium.

One assay addresses T1, FITC-labeled β2 peptide (Rattus norvegicus (paper: rat/human)).
T1 construct: GABAA receptor subunit β2, rat/human, residues 1-19; also called FITC-conjugated target peptide (β2); source: synthetic peptide, HPLC purified
T1 chain: {FITC′}-MWRVRKRGYFGIWSFPLII
The experiment in a line: fluorescence polarisation; 6 µM FITC-α1 peptide or 4 µM FITC-β2 peptide with varying scFv (0-35 µM; G11 0-10 µM) or A10 scFv-Fc (0-1 µM) in PBS + 200 mM imidazole, overnight at 4°C or 2 h at RT. Particulars: both partners purified. (Fluorescence polarisation rises when a labelled molecule tumbles more slowly, as on binding a larger partner.)

In assay [1] the target is T2, α1β2γ2 GABAA receptor expressed in Xenopus laevis oocytes (rat α1, rat β2 and human γ2 subunit sequences) (Rattus norvegicus (alpha1, beta2); Homo …, UniProt P62813;P63138;P18507).
T2 construct: GABAA receptor subunit α1, rat; GABAA receptor subunit β2, rat; GABAA receptor subunit γ2, human; also called intact GABAA receptor; GABAA receptors heterologously expressed by Xenopus laevis oocytes; source: Xenopus laevis oocytes injected with mRNA of each subunit, on the oocyte surface; copies: + +
As to the kind of experiment: immunostaining of cells or tissue; Xenopus oocytes expressing α1β2γ2 GABAA receptors or non-expressing, blocked with 10% fetal bovine serum, incubated with scFv overnight at 16°C, detected with FITC-conjugated M2 anti-Flag, confocal microscopy. The note with it: one partner purified.

The target in assay [2] is T3, biotinylated β2 peptide (GABAA receptor β2 subunit peptide) (Rattus norvegicus (paper: rat/human), biotin at the N-terminus; C-terminal amide).
T3 construct: Serine-Glycine-Serine linker between the N-terminal biotin and the peptide; GABAA receptor subunit β2, rat/human, residues 1-19; also called beta 2; source: synthetic peptide
T3 chain: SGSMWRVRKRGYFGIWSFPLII
The experiment in a line: SRU BIND Reader (label-free plate-based biosensor); biotinylated peptides (10 µg/mL) captured on streptavidin-coated BIND plates, blocked with PBST + 5% BSA, scFvs (0.008-17.5 µM) added in elution buffer, 1 h at RT; shift of peak wavelength against concentration. Particulars: both partners purified.

Another assay has as its target T4, FITC-labeled α1 peptide (Rattus norvegicus).
T4 construct: GABAA receptor subunit α1, rat, residues 1-15; also called FITC-conjugated target peptide (α1); source: synthetic peptide, HPLC purified
T4 chain: {FITC′}-QPSQDELKDNTTVFT
As to the kind of experiment: fluorescence polarisation; 6 µM FITC-α1 peptide or 4 µM FITC-β2 peptide with varying scFv (0-35 µM; G11 0-10 µM) or A10 scFv-Fc (0-1 µM) in PBS + 200 mM imidazole, overnight at 4°C or 2 h at RT. Particulars: both partners purified.

Assay [3] deals with T5, biotinylated α1 peptide (GABAA receptor α1 subunit peptide) (Rattus norvegicus, SMILES …).
T5 construct: Serine-Glycine-Serine linker between the N-terminal biotin and the peptide; GABAA receptor subunit α1, rat, residues 1-15; also called alpha 1; source: synthetic peptide
T5 chain: Biotin-SGSQPSQDELKDNTTVFT-NH2
The experiment in a line: SRU BIND Reader (label-free plate-based biosensor); biotinylated peptides (10 µg/mL) captured on streptavidin-coated BIND plates, blocked with PBST + 5% BSA, scFvs (0.008-17.5 µM) added in elution buffer, 1 h at RT; shift of peak wavelength against concentration. Particulars: both partners purified.

Assay [4] has as its target T6, MBP-α1 peptide fusion protein (Rattus norvegicus).
T6 construct: GABAA receptor subunit α1, rat, residues 1-15, inserted at the C-terminus of the MBP gene in pAT224; also called MBP-fusion protein; source: E. coli, purified (His60 Ni Superflow resin); not shown: MBP, N-terminal, kept
T6 chain: QPSQDELKDNTTVFT
The experiment in a line: far-Western, overlay or dot blot; dot blot; 1 µg to 0.0075 µg MBP-fusion protein adsorbed on PVDF membrane, about 10 nM A10 scFv or A10 scFv-Fc overnight at 4°C, detected with α-Flag-800CW. The note with it: both partners purified.

Assay [5] concerns the target T7, GABAA receptor α1 subunit, native, in mouse retina (Mus musculus C57BL/6J, UniProt P62812).
T7 construct: GABAA receptor subunit α1, mouse, within native receptors of the retina; Tissue fixed in 4% paraformaldehyde; also called native GABAA receptors in the mouse retina; source: endogenous, C57BL/6J mouse retina, fixed cryosections
The experiment in a line: immunostaining of cells or tissue; 16 µm cryosections of paraformaldehyde-fixed mouse retina, biotinylated scFv, detected with Cy5-conjugated streptavidin, confocal microscopy. The note with it: one partner purified.

Primed or numbered codes have the meaning given here. Ends that are not written are not given here. * marks the point of attachment. Biotin = O=C1N[C@H]2[C@H](CS[C@H]2CCCCC(=O)*)N1; FITC′ = fluorescein isothiocyanate

T2 sequence (P62813 28-455, chain 1 of 3): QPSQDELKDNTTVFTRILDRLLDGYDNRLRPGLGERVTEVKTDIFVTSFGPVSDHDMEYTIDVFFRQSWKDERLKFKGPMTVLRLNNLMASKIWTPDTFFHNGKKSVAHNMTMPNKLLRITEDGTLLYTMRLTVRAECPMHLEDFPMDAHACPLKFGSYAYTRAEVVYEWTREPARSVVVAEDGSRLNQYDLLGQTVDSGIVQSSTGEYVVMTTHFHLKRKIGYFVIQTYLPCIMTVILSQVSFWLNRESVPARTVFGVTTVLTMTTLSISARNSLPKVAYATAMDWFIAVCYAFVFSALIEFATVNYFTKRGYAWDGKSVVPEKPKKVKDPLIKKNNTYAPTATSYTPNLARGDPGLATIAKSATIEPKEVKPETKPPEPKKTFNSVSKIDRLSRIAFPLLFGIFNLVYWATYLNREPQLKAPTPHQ
T2 sequence (P63138 26-474, chain 2 of 3): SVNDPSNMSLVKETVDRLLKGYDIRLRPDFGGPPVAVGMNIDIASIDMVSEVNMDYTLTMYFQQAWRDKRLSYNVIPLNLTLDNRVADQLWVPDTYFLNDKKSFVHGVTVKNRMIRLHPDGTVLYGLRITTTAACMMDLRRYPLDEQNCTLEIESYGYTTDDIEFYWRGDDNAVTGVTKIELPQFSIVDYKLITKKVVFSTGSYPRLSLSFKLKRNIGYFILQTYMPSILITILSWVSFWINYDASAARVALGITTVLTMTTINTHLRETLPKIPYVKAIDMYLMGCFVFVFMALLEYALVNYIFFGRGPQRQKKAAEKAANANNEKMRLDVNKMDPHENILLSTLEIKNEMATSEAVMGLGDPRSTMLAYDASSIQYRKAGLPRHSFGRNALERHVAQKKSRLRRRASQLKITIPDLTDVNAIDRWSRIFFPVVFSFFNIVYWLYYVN
T2 sequence (P18507 40-475, chain 3 of 3): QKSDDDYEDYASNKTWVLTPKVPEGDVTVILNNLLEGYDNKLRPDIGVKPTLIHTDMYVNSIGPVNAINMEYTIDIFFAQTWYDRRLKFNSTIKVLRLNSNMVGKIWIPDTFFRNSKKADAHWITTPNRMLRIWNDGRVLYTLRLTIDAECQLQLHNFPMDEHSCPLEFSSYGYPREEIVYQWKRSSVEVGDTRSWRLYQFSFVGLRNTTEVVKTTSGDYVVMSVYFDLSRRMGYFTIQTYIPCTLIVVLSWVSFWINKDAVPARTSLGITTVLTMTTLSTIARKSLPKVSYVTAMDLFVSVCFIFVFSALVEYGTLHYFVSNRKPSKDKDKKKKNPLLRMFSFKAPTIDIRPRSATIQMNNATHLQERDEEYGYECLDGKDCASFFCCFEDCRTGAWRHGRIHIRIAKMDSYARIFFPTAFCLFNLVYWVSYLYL
T7 sequence (P62812 28-455): as the sequence (P62813 28-455, chain 1 of 3) above

B1: G8 scFv (anti-β2 subunit scFv), soluble protein (scFv, V domains shown)
VH: EVQLVQSGAEVKKPGATVKISCKVSGYTFTDYYMHWVQQAPGKGLEWMGLVDPEDGETIYAEKFQGRVTITADTSTDTAYMELSSLRSEDTAVYYCATTPPHDYYDSSGLDYWGQGTLVTVSS
VL: DIQMTQSPSSVSASVGDRVTITCRASQGINRWLAWYQQKPGKAPKLLIYAASNLQSGVPSRFSGSGSGTDFSLTISSLQPEDFATYYCQQSYSPPSTFGGGTKLEIK
notes: human scFv from a naive phage-display library, order VH-linker-VL; source: P. pastoris X33, secreted, purified (Ni-NTA)
Turning to B1, the dissociation constant (Kd) came out at 970 nM with FITC-labeled β2 peptide and 1600 nM in assay [2]. Further, the binding result in assay [1] was “binds”.

B2: A10 scFv (anti-α1 subunit-specific scFv), soluble protein (scFv, V domains shown)
VH: EVQLVQSGAEVKKPGASVKVSCKASGYTFTSYYMHWVRQAPGQGLEWMGIINPSGGSTSYAQKFQGRVTMTRDTSTSTVYMELSSLRSEDTAVYYCARDGWGGSSFLDYWGQGTLVTVSS
VL: SYELTQPPSVSVSPGQTARITCSGDALPKKYAYWYQQKSGQAPVLVIYEDSKRPSGIPERFSGSSSGTMATLTISGAQVEDEADYYCYSKDNTGYQMVFGGGTKLTVL
notes: human scFv from a naive phage-display library, order VL-linker-VH; also called scFv A10; anti-α1 scFv; source: P. pastoris X33, secreted, purified (Ni-NTA)
Consider B2, for which the Kd with FITC-labeled α1 peptide stood at 3500 nM; in assay [3] it was 2400 nM. The binding result in assay [1] was “binds”.

B3: A10 scFv-Fc (dimeric scFv-Fc version of A10) (Fc fusion, human)
VH: B2 VH
VL: B2 VL
notes: as the scFv of m1; order VL-linker-VH; also called A10-Fc; scFv-Fc A10; source: FreeStyle 293F cells, transiently transfected, secreted, purified (His60 Ni Superflow resin); not shown: Fc (human IgG), C-terminal, kept; 3x Flag, C-terminal, kept
As to B3, the “fold increase in dot-blot sensitivity over the scFv” value in assay [4] was around 10 fold. The Kd with FITC-labeled α1 peptide was 26 nM.

B4: A10 scFv, biotinylated in vitro (scFv, V domains shown)
VH: B2 VH
VL: B2 VL
notes: as the scFv of m1; order VL-linker-VH; The same protein as m1, chemically biotinylated for staining of retinal cryosections; also called α1-specific scFv; source: P. pastoris X33, secreted, purified (Ni-NTA)
As to B4, in assay [5], the binding result is “binds”.
